{"source": "patent US20220143094A1", "about": "(Chugai, published 2022)", "binders": {"B1": {"name": "H0000-G1T3GK/GL4-k0a (antibody, human IgG1, kappa)", "heavy": "not shown", "light": "DIVMTQSPLSLPVTPGEPASISCRSSQSLVHSNRNTYLHWYQQKPGQAPRLLIYKVSNRFSGVPDRFSGSGSGTDFTLKISRVEAEDVGVYYCSQNTHVPPTFGQGTKLEIKRTVAAPSVFIFPPSDEQLKSGTASVVCLLNNFYPREAKVQWKVDNALQSGNSQESVTEQDSKDSTYSLSSTLTLSKADYEKHKVYACEVTHQGLSSPVTKSFNRGEC", "notes": "Control antigen antibody with the same variable regions as m1 and a human IgG1 constant region carrying C-terminal GK; also called anti-GPC3 antibody with C-terminal addition of Gly-Lys; anti-GPC3 antibody having IgG1 constant region having C-terminal GK"}, "B2": {"name": "H0000-SG115/GL4-k0a (antibody)", "heavy": "QVQLVQSGAEVKKPGASVKVSCKASGYTFTDYEMHWIRQPPGQGLEWIGAIDPKTGDTAYSQKFKGRVTLTADKSTSTAYMELSSLTSEDTAVYYCTRFYSYTYWGQGTLVTVSSASTKGPSVFPLAPSSKSTSGGTAALGCLVKDYFPEPVTVSWNSGALTSGVHTFPAVLQSSGLYSLSSVVTVPSSSLGTQTYICNVNHKPSNTKVDKKVEPKSCDKTHTCPPCPAPELRRGPKVFLFPPKPKDTLMISRTPEVTCVVVDVSHEDPEVKFNWYVDGVEVHNAKTKPREEQYNSTYRVVSVLTVLHQDWLNGKEYKCKVSNKGLPSSIEKTISKAKGQPREPQVYTLPPSREEMTKNQVSLTCLVKGFYPSDIAVEWESNGQPENNYKTTPPVLDSDGSFFLYSKLTVDKSRWQQGNVFSCSVLHEALHAHYTRKELSLSP", "light": "DIVMTQSPLSLPVTPGEPASISCRSSQSLVHSNRNTYLHWYQQKPGQAPRLLIYKVSNRFSGVPDRFSGSGSGTDFTLKISRVEAEDVGVYYCSQNTHVPPTFGQGTKLEIKRTVAAPSVFIFPPSDEQLKSGTASVVCLLNNFYPREAKVQWKVDNALQSGNSQESVTEQDSKDSTYSLSSTLTLSKADYEKHKVYACEVTHQGLSSPVTKSFNRGEC", "notes": "Anti-GPC3 antibody with the SG115 constant region, which is both silent Fc and delta GK-Fc; also called anti-GPC3 silent Fc antibody; anti-GPC3 silent Fc and anti-delta GK-Fc antibody"}}, "key": {"H0000-SG115/GL4-k0a": {"molecular_target": "B2", "test": "SPR (Biacore T200), multi-cycle kinetics; anti-GPC3 antibody captured on engineered GPC3 CM4 chip, bispecific antibody as analyte at 15.6-1000 nM"}, "H0000-G1T3GK/GL4-k0a": {"molecular_target": "B1", "test": "SPR (Biacore T200), multi-cycle kinetics; anti-GPC3 antibody captured on engineered GPC3 CM4 chip, bispecific antibody as analyte at 15.6-1000 nM"}, "engineered GPC3": {"molecular_target": "engineered GPC3 (Homo sapiens (Human), UniProt P51654 25-563)", "sequence (P51654 other isoform, or with tags, fused parts or gaps limits assumed)": "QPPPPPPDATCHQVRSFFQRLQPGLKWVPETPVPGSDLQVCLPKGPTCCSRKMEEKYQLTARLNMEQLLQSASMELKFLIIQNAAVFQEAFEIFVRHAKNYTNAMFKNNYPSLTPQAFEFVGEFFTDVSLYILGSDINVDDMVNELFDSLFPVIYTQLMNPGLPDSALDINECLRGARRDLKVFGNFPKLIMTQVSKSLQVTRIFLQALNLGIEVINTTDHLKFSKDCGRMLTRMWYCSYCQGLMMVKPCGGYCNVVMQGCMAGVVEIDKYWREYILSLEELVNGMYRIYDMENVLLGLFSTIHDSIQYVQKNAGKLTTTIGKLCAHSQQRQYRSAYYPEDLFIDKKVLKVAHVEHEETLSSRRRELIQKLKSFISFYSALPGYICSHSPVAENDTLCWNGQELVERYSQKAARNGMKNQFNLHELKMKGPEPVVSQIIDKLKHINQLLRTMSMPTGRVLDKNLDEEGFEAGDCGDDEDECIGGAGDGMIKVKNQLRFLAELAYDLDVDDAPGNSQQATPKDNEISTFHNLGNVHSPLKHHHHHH", "test": "SPR (Biacore T200); capture of the antibody on an engineered GPC3 CM4 chip"}}}
{"binder": "SKA0009H-F760mnN17/SKA0009Ls-k0MT//TR01H113-F760mnP17/L0011-k0a (bispecific antibody, human IgG1, kappa, N297A, Bispecific IgG made by mixing two homomers under 2-MEA reduction; also called anti-silent Fc antibody; silent Fc×CD3) heavy 1: QSVEESGGRLVTPGTSLTLTCTVSGIDLSSYGMGWVRQAPGMGLEYIGIIYAAGRTYYASWVKGRFIISKTSTTVDLEMTSLTTEDTATYFCARHGSWYAGMDLWGPGTLVTVSSASTKGPSVFPLAPSSKSTSGGTAALGCLVKDYFPEPVTVSWNSGALTSGVHTFPAVLQSSGLYSLSSVVTVPSSSLGTQTYICNVNHKPSNTKVDKKVEPKSCDKTHTCPPCPAPELRGGPKVFLFPPKPKDTLMISRTPEVTCVVVDVSHEDPEVKFNWYVDGVEVHNAKTKPREEQYASTYRVVSVLTVLHQDWLNGKEYKCKVSNKALPAPIEKTISKAKGQPREPQVYTLPPSREEMTKNQVSLTCLVKGFYPSDIAVEWESNGQPENNYKTTPPYLDSDGSFFLYSKLTVDKSRWQQGNVFSCSVMHEALHNHYTQESLSLSP light 1: AIEMTQTPSPVSAAVGGTVSINCQASEDIENYFAWYQQKPGQPPKLLIYDASELASGVPSRFSGSGSGTDFTLTISGVQSDDAATYYCQHADYAASSENTFGGGTEVVVKRTVAAPSVFIFPPSDEQLKSGTASVVCLLNNFYPREAKVQWKVDNALQSGNSQESVTEQDSKDSTYSLSSTLTLSKADYEKHKVYACEVTHQGLSSPVTKSFNRGEC heavy 2: QVQLVESGGGVVQPGGSLRLSCAASGFTFSNAWMHWVRQAPGKGLEWVAQIKDKSQNYATYVAESVKGRFTISRADSKNSIYLQMNSLKTEDTAVYYCRYVHYAAGYGVDIWGQGTTVTVSSASTKGPSVFPLAPSSKSTSGGTAALGCLVKDYFPEPVTVSWNSGALTSGVHTFPAVLQSSGLYSLSSVVTVPSSSLGTQTYICNVNHKPSNTKVDKKVEPKSCDKTHTCPPCPAPELRGGPKVFLFPPKPKDTLMISRTPEVTCVVVDVSHEDPEVKFNWYVDGVEVHNAKTKPREEQYASTYRVVSVLTVLHQDWLNGKEYKCKVSNKALPAPIEKTISKAKGQPREPQVYTLPPSRKEMTKNQVSLTCLVKGFYPSDIAVEWESNGQPENNYKTTPPYLDSDGSFFLYSKLTVDKSRWQQGNVFSCSVMHEALHNHYTQKSLSLSP light 2: DIVMTQSPLSLPVTPGEPASISCRSSQPLVHSNRNTYLHWYQQKPGQAPRLLIYKVSNRFSGVPDRFSGSGSGTDFTLKISRVEAEDVGVYYCGQGTQVPYTFGQGTKLEIKRTVAAPSVFIFPPSDEQLKSGTASVVCLLNNFYPREAKVQWKVDNALQSGNSQESVTEQDSKDSTYSLSSTLTLSKADYEKHKVYACEVTHQGLSSPVTKSFNRGEC", "values": [{"measurement": "Kd", "setting": "H0000-SG115/GL4-k0a", "value": "< 0.26", "unit": "nM"}, {"measurement": "koff", "setting": "H0000-SG115/GL4-k0a", "value": "< 1e-05", "unit": "s⁻¹"}, {"measurement": "kon", "setting": "H0000-SG115/GL4-k0a", "value": 38900, "unit": "M⁻¹ s⁻¹"}, {"measurement": "kon", "setting": "H0000-G1T3GK/GL4-k0a", "value": 2610, "unit": "M⁻¹ s⁻¹"}]}
{"binder": "YG55H-F760mnN17GK/YG55L-k0//TR01H113-F760mnP17GK/L0011-k0a (bispecific antibody, human IgG1, kappa, N297A, Bispecific IgG made by mixing two homomers under 2-MEA reduction; also called anti-delta GK-Fc antibody; delta GK-Fc×CD3) heavy 1: QSLEESGGRLVTPGGSLTLTCTVSGIDLSNYAVGWVRQAPGKGLEYIGIIYASGSAYYASWAKGRFTISKTSSTTVDLKVTSLTTEDTATYFCARGYGRAFRIWGPGTLVTVSSASTKGPSVFPLAPSSKSTSGGTAALGCLVKDYFPEPVTVSWNSGALTSGVHTFPAVLQSSGLYSLSSVVTVPSSSLGTQTYICNVNHKPSNTKVDKKVEPKSCDKTHTCPPCPAPELRGGPKVFLFPPKPKDTLMISRTPEVTCVVVDVSHEDPEVKFNWYVDGVEVHNAKTKPREEQYASTYRVVSVLTVLHQDWLNGKEYKCKVSNKALPAPIEKTISKAKGQPREPQVYTLPPSREEMTKNQVSLTCLVKGFYPSDIAVEWESNGQPENNYKTTPPYLDSDGSFFLYSKLTVDKSRWQQGNVFSCSVMHEALHNHYTQESLSLSPGK light 1: AVLTQTPSPVSAAVGGTVTISCQASQSVYNNNFLSWYQQKPGQRPKLLIYDASTLESGVPSRFSGSGSGTQFTLTISSVQCDDAATYYCLGGYDDHDNAFGGGTEVVVKRTVAAPSVFIFPPSDEQLKSGTASVVCLLNNFYPREAKVQWKVDNALQSGNSQESVTEQDSKDSTYSLSSTLTLSKADYEKHKVYACEVTHQGLSSPVTKSFNRGEC heavy 2: QVQLVESGGGVVQPGGSLRLSCAASGFTFSNAWMHWVRQAPGKGLEWVAQIKDKSQNYATYVAESVKGRFTISRADSKNSIYLQMNSLKTEDTAVYYCRYVHYAAGYGVDIWGQGTTVTVSSASTKGPSVFPLAPSSKSTSGGTAALGCLVKDYFPEPVTVSWNSGALTSGVHTFPAVLQSSGLYSLSSVVTVPSSSLGTQTYICNVNHKPSNTKVDKKVEPKSCDKTHTCPPCPAPELRGGPKVFLFPPKPKDTLMISRTPEVTCVVVDVSHEDPEVKFNWYVDGVEVHNAKTKPREEQYASTYRVVSVLTVLHQDWLNGKEYKCKVSNKALPAPIEKTISKAKGQPREPQVYTLPPSRKEMTKNQVSLTCLVKGFYPSDIAVEWESNGQPENNYKTTPPYLDSDGSFFLYSKLTVDKSRWQQGNVFSCSVMHEALHNHYTQKSLSLSPGK light 2: DIVMTQSPLSLPVTPGEPASISCRSSQPLVHSNRNTYLHWYQQKPGQAPRLLIYKVSNRFSGVPDRFSGSGSGTDFTLKISRVEAEDVGVYYCGQGTQVPYTFGQGTKLEIKRTVAAPSVFIFPPSDEQLKSGTASVVCLLNNFYPREAKVQWKVDNALQSGNSQESVTEQDSKDSTYSLSSTLTLSKADYEKHKVYACEVTHQGLSSPVTKSFNRGEC", "values": [{"measurement": "Kd", "setting": "H0000-SG115/GL4-k0a", "value": 41.7, "unit": "nM"}, {"measurement": "koff", "setting": "H0000-SG115/GL4-k0a", "value": 0.00348, "unit": "s⁻¹"}, {"measurement": "kon", "setting": "H0000-SG115/GL4-k0a", "value": 83500, "unit": "M⁻¹ s⁻¹"}]}
{"binder": "B1", "values": [{"measurement": "binding result", "setting": "engineered GPC3", "value": "binds"}]}
{"binder": "B2", "values": [{"measurement": "binding result", "setting": "engineered GPC3", "value": "binds"}]}
